The chains are these.
B1: LINE1-mini (parent)
chain: GGCAGAGCUCAACACAGCGUGGCAAAGUGGCUGUGGCUAGACUGCC

The variants in this data set derive from B1. In words: self-cleavage, relative activity (ratio to wild type); higher = more cleavage; in vitro, sequencing; the parent is a self-cleaving ribozyme.
Consider GGCAGAGCUCUACAGAGCGUGGCAAAGUGGCUGUGGCUAGACUGCC [A11U C15G], for which the self-cleavage is 0.02.

For the variant GGCAGAGCUCUACAUAGCGUGGCAAAGUGGCUGUGGCUAGACUGCC [A11U C15U], the self-cleavage was determined as 0.17.

With GGCAGAGCUCUACAAAGCGUGGCAAAGUGGCUGUGGCUAGACUGCC [A11U C15A], the self-cleavage worked out at 0.03.

As to GGCAGAGCUCUAAACAGCGUGGCAAAGUGGCUGUGGCUAGACUGCC [A11U C13A], the self-cleavage was determined as 0.02.

Consider GGCAGAGCUCUAGACAGCGUGGCAAAGUGGCUGUGGCUAGACUGCC [A11U C13G], for which the self-cleavage worked out at 0.03.

Take GGCAGAGCUCUAUACAGCGUGGCAAAGUGGCUGUGGCUAGACUGCC [A11U C13U]: the self-cleavage amounted to 0.04.

As for GGCAGAGCUCUACACAGCGUGGCAAAGUGGUUGUGGCUAGACUGCC [A11U C31U], the self-cleavage came out at 0.1.

In the case of GGCAGAGCUCUACACAGCGUGGCAAAGUGGAUGUGGCUAGACUGCC [A11U C31A], the self-cleavage amounted to 0.04.

As to GGCAGAGCUCUACACAGCGUGGCAAAGUGGGUGUGGCUAGACUGCC [A11U C31G], the self-cleavage turned out to be 0.03.

As for GGCAGAGCUCUACACAGCGUGGGAAAGUGGCUGUGGCUAGACUGCC [A11U C23G], the self-cleavage amounted to 0.11.

As to GGCAGAGCUCUACACAGCGUGGUAAAGUGGCUGUGGCUAGACUGCC [A11U C23U], the self-cleavage was 0.1.

Turning to GGCAGAGCUCUACACAGCGUGGAAAAGUGGCUGUGGCUAGACUGCC [A11U C23A], the self-cleavage is 0.16.

For GGCAGAGCUCUACACAGCGUGGCAAAGUCGCUGUGGCUAGACUGCC [A11U G29C], the self-cleavage amounted to 0.09.

With GGCAGAGCUCUACACAGCGUGGCAAAGUAGCUGUGGCUAGACUGCC [A11U G29A], the self-cleavage worked out at 0.14.

On to GGCAGAGCUCUACACAGCGUGGCAAAGUUGCUGUGGCUAGACUGCC [A11U G29U], for which the self-cleavage amounted to 0.17.

On to GGCAGAGCUCUACACAGCGUGGCAAAGUGGCUGUGGCUAGUCUGCC [A11U A41U], for which the self-cleavage was determined as 0.27.

In the case of GGCAGAGCUCUACACAGCGUGGCAAAGUGGCUGUGGCUAGGCUGCC [A11U A41G], the self-cleavage turned out to be 0.05.

In the case of GGCAGAGCUCUACACAGCGUGGCAAAGUGGCUGUCGCUAGACUGCC [A11U G35C], the self-cleavage was 0.01.

For GGCAGAGCUCUACACAGCGUGGCAAAGUGGCUGUUGCUAGACUGCC [A11U G35U], the self-cleavage was determined as 0.02.

Consider GGCAGAGCUCUACACAGCGUGGCAAAGUGGCUGUAGCUAGACUGCC [A11U G35A], for which the self-cleavage came to 0.04.

Take GGCAGAGCUCUACACAGAGUGGCAAAGUGGCUGUGGCUAGACUGCC [A11U C18A]: the self-cleavage was 0.07.

For GGCAGAGCUCUACACAGGGUGGCAAAGUGGCUGUGGCUAGACUGCC [A11U C18G], the self-cleavage was determined as 0.04.

GGCAGAGCUCUACACAGUGUGGCAAAGUGGCUGUGGCUAGACUGCC [A11U C18U]: the self-cleavage came to 0.32.

As for GGCAGAGCUCUACACAACGUGGCAAAGUGGCUGUGGCUAGACUGCC [A11U G17A], the self-cleavage turned out to be 0.04.

In the case of GGCAGAGCUCUACACAUCGUGGCAAAGUGGCUGUGGCUAGACUGCC [A11U G17U], the self-cleavage is 0.03.

GGCAGAGCUCUACACACCGUGGCAAAGUGGCUGUGGCUAGACUGCC [A11U G17C]: the self-cleavage was determined as 0.12.

In the case of GGCAGAGCUCUACACAGCGUGGCAAAGUGGCUGUGGCUAGAGUGCC [A11U C42G], the self-cleavage came to 0.02.

Consider GGCAGAGCUCUACACAGCGUGGCAAAGUGGCUGUGGCUAGAAUGCC [A11U C42A], for which the self-cleavage stood at 0.03.

In the case of GGCAGAGCUCUACACAGCGUGGCAAAGUGGCUGUGGCUAGAUUGCC [A11U C42U], the self-cleavage was 0.02.

Regarding GGCAGAGCUCUACACAGCCUGGCAAAGUGGCUGUGGCUAGACUGCC [A11U G19C], the self-cleavage came out at 0.1.

As for GGCAGAGCUCUACACAGCAUGGCAAAGUGGCUGUGGCUAGACUGCC [A11U G19A], the self-cleavage worked out at 0.27.

On to GGCAGAGCUCUACACAGCUUGGCAAAGUGGCUGUGGCUAGACUGCC [A11U G19U], for which the self-cleavage turned out to be 0.12.

As for GGCAGAGCUCUACACAGCGUGGCAAAGUGGCUGUGGCUAGACUGAC [A11U C45A], the self-cleavage is 0.05.

Turning to GGCAGAGCUCUACACAGCGUGGCAAAGUGGCUGUGGCUAGACUGUC [A11U C45U], the self-cleavage was found to be 0.23.

For GGCAGAGCUCUACACAGCGUGGCAAAGUGGCUGUGGCUAGACUGGC [A11U C45G], the self-cleavage is 0.04.

Consider GGCAGAGCUCUACACAGCGUGGCAAAGUGGCUUUGGCUAGACUGCC [A11U G33U], for which the self-cleavage was determined as 0.04.

GGCAGAGCUCUACACAGCGUGGCAAAGUGGCUAUGGCUAGACUGCC [A11U G33A]: the self-cleavage was found to be 0.03.

As for GGCAGAGCUCUACACAGCGUGGCAAAGUGGCUCUGGCUAGACUGCC [A11U G33C], the self-cleavage amounted to 0.02.

As for GGCAGAGCUCUACACAGCGUGCCAAAGUGGCUGUGGCUAGACUGCC [A11U G22C], the self-cleavage came out at 0.07.

For the variant GGCAGAGCUCUACACAGCGUGACAAAGUGGCUGUGGCUAGACUGCC [A11U G22A], the self-cleavage was 0.34.

Regarding GGCAGAGCUCUACACAGCGUGUCAAAGUGGCUGUGGCUAGACUGCC [A11U G22U], the self-cleavage worked out at 0.15.

Regarding GGCAGAGCUCUACACAGCGUGGCAAAGUGGCUGUGGCUAGACUGCG [A11U C46G], the self-cleavage worked out at 0.06.

Take GGCAGAGCUCUACACAGCGUGGCAAAGUGGCUGUGGCUAGACUGCU [A11U C46U]: the self-cleavage was found to be 0.12.

For GGCAGAGCUCUACACAGCGUGGCAAAGUGGCUGUGGCUAGACUGCA [A11U C46A], the self-cleavage is 0.09.

Take GGCAGAGCUCUACACAGCGUGGCAAAGUGGCUGUGGGUAGACUGCC [A11U C37G]: the self-cleavage turned out to be 0.02.

For GGCAGAGCUCUACACAGCGUGGCAAAGUGGCUGUGGAUAGACUGCC [A11U C37A], the self-cleavage was determined as 0.02.

For GGCAGAGCUCUACACAGCGUGGCAAAGUGGCUGUGGUUAGACUGCC [A11U C37U], the self-cleavage was determined as 0.01.

On to GGCAGAGCUCUACACAGCGUAGCAAAGUGGCUGUGGCUAGACUGCC [A11U G21A], for which the self-cleavage was determined as 0.33.

Turning to GGCAGAGCUCUACACAGCGUUGCAAAGUGGCUGUGGCUAGACUGCC [A11U G21U], the self-cleavage stood at 0.1.

Take GGCAGAGCUCUACACAGCGUCGCAAAGUGGCUGUGGCUAGACUGCC [A11U G21C]: the self-cleavage stood at 0.12.

Consider GGCAGAGCUCUACACAGCGUGGCAAACUGGCUGUGGCUAGACUGCC [A11U G27C], for which the self-cleavage is 0.14.

Consider GGCAGAGCUCUACACAGCGUGGCAAAAUGGCUGUGGCUAGACUGCC [A11U G27A], for which the self-cleavage was 0.16.

In the case of GGCAGAGCUCUACACAGCGUGGCAAAUUGGCUGUGGCUAGACUGCC [A11U G27U], the self-cleavage came to 0.13.

With GGCAGAGCUCUACACAGCGUGGCAAAGUGACUGUGGCUAGACUGCC [A11U G30A], the self-cleavage was found to be 0.17.

With GGCAGAGCUCUACACAGCGUGGCAAAGUGUCUGUGGCUAGACUGCC [A11U G30U], the self-cleavage came to 0.18.

As to GGCAGAGCUCUACACAGCGUGGCAAAGUGCCUGUGGCUAGACUGCC [A11U G30C], the self-cleavage is 0.13.

The values are drawn from the RNAGym collection of RNA variant scans (doi:10.7554/elife.90254).
